We go through 7 molecules from US20240228562A1, “NOVEL LIPOCALIN MUTEINS SPECIFIC FOR CONNECTIVE TISSUE GROWTH FACTOR (CTGF)” (PIERIS PHARMACEUTICALS GMBH, priority 2021, published 2024).

Test [1] has as its target T1, Murine CTGF (Mus musculus, UniProt P29268).
T1 construct: purchased Abbexa
T1 sequence (P29268 26-348): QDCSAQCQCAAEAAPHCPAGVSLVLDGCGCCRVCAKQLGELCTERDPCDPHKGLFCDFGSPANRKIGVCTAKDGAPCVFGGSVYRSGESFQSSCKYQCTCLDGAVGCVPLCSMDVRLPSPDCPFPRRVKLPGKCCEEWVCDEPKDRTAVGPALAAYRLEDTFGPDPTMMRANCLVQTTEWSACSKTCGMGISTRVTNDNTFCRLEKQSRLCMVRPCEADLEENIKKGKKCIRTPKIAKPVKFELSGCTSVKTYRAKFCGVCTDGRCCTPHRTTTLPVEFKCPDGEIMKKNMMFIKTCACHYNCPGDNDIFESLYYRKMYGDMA
In words: SPR binding kinetics and affinity, murine CTGF. Also noted: key to Murine CTGF kon / Murine CTGF koff / Murine CTGF KD: B binding without determination of kinetics constants. The following applies: 25° C., 1:1 binding model. The gist of the method: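 Targets either amine-coupled to CM5 chip (300–1100 RU; Fc-tagged human, untagged rat/murine) or Fc-captured via anti-human IgG; muteins injected 180 s contact, 900–3600 s dissociation, 30 μL/min, 25° C. Double-referenced sensorgrams fit to 1:1 model giving kon, koff and KD.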

Test [2] deals with T2, muCTGF domains 1 and 2 with human Fc tag (Mus musculus, UniProt P29268).
T2 construct: purchased Evitria
T2 sequence (P29268 with tags, fused parts or gaps): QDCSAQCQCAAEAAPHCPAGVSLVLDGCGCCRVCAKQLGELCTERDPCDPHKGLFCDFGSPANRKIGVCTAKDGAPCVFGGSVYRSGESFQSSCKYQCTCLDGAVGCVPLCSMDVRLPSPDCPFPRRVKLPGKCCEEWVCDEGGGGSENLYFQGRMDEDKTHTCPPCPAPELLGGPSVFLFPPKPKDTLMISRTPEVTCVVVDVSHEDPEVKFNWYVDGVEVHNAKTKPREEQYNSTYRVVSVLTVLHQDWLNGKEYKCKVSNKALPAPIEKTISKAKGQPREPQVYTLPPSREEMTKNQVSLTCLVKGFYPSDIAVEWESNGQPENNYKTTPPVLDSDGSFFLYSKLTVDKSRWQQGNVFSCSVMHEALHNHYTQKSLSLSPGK
As to the kind of experiment: ELISA binding to CTGF fragments, murine CTGF domains 1 and 2. The conditions noted are these: coated 1 μg/ml, muteins from 1000 nM; for EC50: read-out: EC Murine CTGF1-2-huFc. The procedure:
(§1) Binding of muteins to fragments of human and murine CTGF was tested by an ELISA assay. In detail, a 384-well plate suitable for fluorescence measurements (Greiner FLUOTRAC™ 600, black flat bottom, high-binding) was coated with 20 μl of human (R&D Systems, SEQ ID NO 79) and murine CTGF (Biozol, SEQ ID NO: 80) or fragments thereof (Evitria, huCTGF domains 1 and 2 with human Fc tag (SEQ ID NO 77) and muCTGF domains 1 and 2 with human Fc tag (SEQ ID NO 78)) at a concentration of 1 μg/ml in PBS over night at 4° C. After washing with PBS with 0.05% Tween 20, wells were blocked with 100 μl blocking buffer containing 0.1% Tween 20 and 2% BSA (PBS-T/BSA) for 1 h at room temperature. 20 μl of serially diluted muteins starting at 1000 nM were incubated in PBS-T/BSA for 1 h at room temperature.
(§2) The residual supernatants were discarded and 20 μl HRP-labeled anti-Strep-Tag antibody was added at a predetermined optimal concentration in PBS-T/BSA and incubated for 1 h at RT. After washing, 20 μl fluorogenic HRP substrate (QuantaBlu, Thermo) was added to each well, and the reaction was allowed to proceed for 5 to 25 minutes. The fluorescence intensity of every well on the plate was read using a fluorescence microplate reader (Tecan). Curve fitting was performed using GraphPad Prism 7 software.

The target of test [3] is T3, huCTGF domains 1 and 2 with human Fc tag (Homo sapiens, UniProt P29279).
T3 construct: purchased Evitria
T3 sequence (P29279 with tags, fused parts or gaps): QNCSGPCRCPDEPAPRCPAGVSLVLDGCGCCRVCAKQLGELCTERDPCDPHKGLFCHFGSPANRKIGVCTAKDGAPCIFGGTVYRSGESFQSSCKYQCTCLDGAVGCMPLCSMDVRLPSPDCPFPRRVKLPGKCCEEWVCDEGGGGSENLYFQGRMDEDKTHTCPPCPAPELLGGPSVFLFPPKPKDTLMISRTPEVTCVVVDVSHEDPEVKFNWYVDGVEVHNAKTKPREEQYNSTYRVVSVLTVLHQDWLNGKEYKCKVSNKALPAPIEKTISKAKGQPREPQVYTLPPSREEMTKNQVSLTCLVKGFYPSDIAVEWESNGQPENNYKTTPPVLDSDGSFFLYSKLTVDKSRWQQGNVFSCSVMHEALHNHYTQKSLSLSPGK
As to the kind of experiment: ELISA binding to CTGF fragments, human CTGF domains 1 and 2. The following applies: coated 1 μg/ml, muteins from 1000 nM; for EC50: read-out: EC Human CTGF1-2-huFc. As for the experimental part: as §1, §2

For test [4], the target named is T4, human CTGF (Homo sapiens, UniProt P29279, H83D).
T4 construct: purchased R&D Systems
T4 sequence (P29279 27-349 H83D): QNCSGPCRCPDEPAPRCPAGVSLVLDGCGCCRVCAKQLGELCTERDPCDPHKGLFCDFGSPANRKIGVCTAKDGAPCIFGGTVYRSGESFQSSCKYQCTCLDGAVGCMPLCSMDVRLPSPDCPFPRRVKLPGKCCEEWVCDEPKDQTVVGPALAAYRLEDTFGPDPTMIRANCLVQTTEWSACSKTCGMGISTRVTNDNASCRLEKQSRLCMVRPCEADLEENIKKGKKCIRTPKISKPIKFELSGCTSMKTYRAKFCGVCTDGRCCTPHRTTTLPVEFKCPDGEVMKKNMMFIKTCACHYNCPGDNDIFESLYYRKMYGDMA
As to the kind of experiment: ELISA binding to full-length human CTGF (Example 9). The conditions noted are these: coated 1 μg/ml, muteins from 1000 nM, read-out: EC Human CTGF. As for the experimental part: as §1, §2

Test [5] deals with T5, Murine CTGF (Mus musculus, UniProt P29268).
T5 construct: Fc (N); purchased Biozol
As to the kind of experiment: ELISA binding to full-length murine CTGF (Example 9). The conditions noted are these: coated 1 μg/ml, muteins from 1000 nM; for EC50: read-out: EC Murine CTGF. As for the experimental part:
as §1, §2
T5 sequence (P29268 with tags, fused parts or gaps): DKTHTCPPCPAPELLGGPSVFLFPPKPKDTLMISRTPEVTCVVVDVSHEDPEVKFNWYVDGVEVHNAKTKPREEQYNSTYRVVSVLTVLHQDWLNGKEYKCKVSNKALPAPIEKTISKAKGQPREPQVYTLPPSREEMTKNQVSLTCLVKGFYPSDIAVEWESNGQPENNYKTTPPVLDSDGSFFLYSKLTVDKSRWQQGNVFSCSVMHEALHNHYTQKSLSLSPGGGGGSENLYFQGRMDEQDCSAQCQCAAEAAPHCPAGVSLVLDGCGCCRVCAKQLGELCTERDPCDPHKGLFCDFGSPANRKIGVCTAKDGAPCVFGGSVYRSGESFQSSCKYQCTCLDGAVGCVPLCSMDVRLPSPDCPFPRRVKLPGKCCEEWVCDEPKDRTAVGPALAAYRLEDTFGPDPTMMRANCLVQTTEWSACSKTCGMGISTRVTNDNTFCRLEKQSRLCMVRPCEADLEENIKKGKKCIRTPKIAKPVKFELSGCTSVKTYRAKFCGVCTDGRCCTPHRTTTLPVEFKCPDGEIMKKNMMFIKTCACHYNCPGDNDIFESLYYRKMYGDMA

Test [6] concerns the target T6, Rat CTGF (Rattus norvegicus, UniProt Q9R1E9).
T6 construct: purchased R&D Systems
T6 sequence (Q9R1E9 25-347): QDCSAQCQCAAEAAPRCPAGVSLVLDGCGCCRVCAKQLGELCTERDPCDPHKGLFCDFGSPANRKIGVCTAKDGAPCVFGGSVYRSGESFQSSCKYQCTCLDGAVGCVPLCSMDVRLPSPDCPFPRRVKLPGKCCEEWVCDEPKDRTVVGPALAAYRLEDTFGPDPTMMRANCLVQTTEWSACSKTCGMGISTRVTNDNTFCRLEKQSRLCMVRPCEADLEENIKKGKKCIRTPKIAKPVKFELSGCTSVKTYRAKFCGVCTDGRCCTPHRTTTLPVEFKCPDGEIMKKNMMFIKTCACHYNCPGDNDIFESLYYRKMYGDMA
In words: ELISA binding to rat CTGF (Example 9). The following applies: muteins from 1000 nM; for EC50: read-out: EC Rat CTGF.

B1: SEQ ID NO: 7: parent CTGF-binding hNGAL lipocalin mutein (protein)
chain: QDSTSDLIPAPPLSKVPLQQNFQDNQFHGKWYVVGLAGNYGLRTDKRPSKMFATIYELKEDKSYDVTSVRFEQERCHYTIRTFVPGSQPGEFTTGSIKSRPGQTSSLVRVVSTNYNQHAMVFFKSVIQNREYFAITLYGRTKELTSELKENFIRFSKSLGLPENHIVFPVPIDQCIDG
modifications: lipocalin mutein
Regarding B1, the “Murine CTGF KD” value in test [1] was “B”. Moreover, the “Murine CTGF koff” value in test [1] is “B”. In test [1], the “Murine CTGF kon” value was “B”. For the same molecule, the EC50 in test [2] was 14 nM; in test [3], 17 nM; in test [4] it was 34 nM; in test [5] it was 29 nM; in test [6], 41 nM.

B2: SEQ ID NO: 3: parent CTGF-binding hNGAL lipocalin mutein (protein)
chain: QDSTSDLIPAPPLSKVPLQQNFQDNQFHGKWYVVGRAGNNRLREDKDPPKMWATIYELKEDKSYNVTHVHFMTKKCRYIIDTFVPGSQPGEFTLGAIKSGPGMTSPLVRIVSTNYNQHAMVFFKWVNQNREWFTITLYGRTKELTSELKENFIRFSKSLGLPENHIVFPVPIDQCIDG
modifications: lipocalin mutein
On to B2, for which, in test [1], the “Murine CTGF KD” value is “B”, the “Murine CTGF koff” value was “B” and the “Murine CTGF kon” value was “B”. For the same molecule, the “EC Murine CTGF1-2-huFc” value in test [2] is recorded as “n.b”. For the same molecule, the “EC Human CTGF1-2-huFc” value in test [3] is listed as “n.b”. Moreover, in test [4], the EC50 is 6.9 nM. Also, in test [5], the “EC Murine CTGF” value is “n.b”. Further, the “EC Rat CTGF” value in test [6] is given as “weak”.

B3: SEQ ID NO: 23: optimized CTGF-binding hNGAL lipocalin mutein (protein)
chain: QDSTSDLIPAPPLSKVPLQQNFQDNQFQGKWYVVGVAGNAILRPDKQPAKMFATIYELKEDKSYDVTSVRFEAKSCKYTIKTFVPGSQPGEFTSGQIKSAPGQTSTLVRVVSTNYNQHAMVFFKHVSQNREIFVITLYGRTKELTSELKENFIRFSKSLGLPENHIVFPVPIDQCIDG
modifications: lipocalin mutein
For B3, in test [1], the “Murine CTGF KD” value is listed as “B”, the “Murine CTGF koff” value is on record as “B” and the “Murine CTGF kon” value is on record as “B”.

B4: SEQ ID NO: 15: optimized CTGF-binding hNGAL lipocalin mutein (protein)
chain: QDSTSDLIPAPPLSKVPLQQNFQDNQFQGKWYVVGLAGNAILREDKQPAKMFATIYELKEDKSYDVTSVRFEAKSCKYTIKTFVPGSQPGEFTAGYIKSAPGQTSTLVRVVSTNYNQHAMVFFKHVTQNREIFVITLYGRTKELTSELKENFIRFSKSLGLPENHIVFPVPIDQCIDG
modifications: lipocalin mutein
Consider B4, for which, in test [1], the “Murine CTGF koff” value was 4.51e-05 s⁻¹ and the “Murine CTGF kon” value was found to be 129000 M⁻¹ s⁻¹.

B5: SEQ ID NO: 9: parent CTGF-binding hNGAL lipocalin mutein (protein)
chain: QDSTSDLIPAPPLSKVPLQQNFQDNQFHGKWYVVGLAGNKILRIDKQPAKMFATIYELKEDKSYDVTSVRFEARSCSYTIKTFVPGSQPGEFTAGNIKSAPGQTSTLVRVVSTNYNQHAMVFFKHVSQNRETFVITLYGRTKELTSELKENFIRFSKSLGLPENHIVFPVPIDQCIDG
modifications: lipocalin mutein
B5 showed a Kd in test [1] of 6.26 nM. For the same molecule, the “Murine CTGF koff” value in test [1] was found to be 0.000832 s⁻¹. In addition, in test [1], the “Murine CTGF kon” value came to 133000 M⁻¹ s⁻¹. Also, the EC50 in test [2] turned out to be 5.8 nM; in test [3] it was 8 nM; in test [4] it was 14 nM; in test [5], 11 nM; in test [6] it was 30 nM.

B6: SEQ ID NO: 29: parent CTGF-binding hNGAL lipocalin mutein (protein)
chain: QDSTSDLIPAPPLSKVPLQQNFQDNQFHGKWYVVGWAGNIKLREDKDPFKMSATIYELKEDKSYNVTEVVFEQKKCHYIIKTFVPGSQPGEFTLGDIKSPPGETSSLVRVVSTNYNQHAMVFFKKVFQNREFFWITLYGRTKELTSELKENFIRFSKSLGLPENHIVFPVPIDQCIDG
modifications: lipocalin mutein
As for B6, the EC50 in test [2] was 17 nM; in test [3], 8.4 nM; in test [4], 11 nM; in test [6], 20 nM. Besides, the “EC Murine CTGF” value in test [5] is on record as “n.b”.

B7: SEQ ID NO: 25: parent CTGF-binding hNGAL lipocalin mutein (protein)
chain: QDSTSDLIPAPPLSKVPLQQNFQDNQFHGKWYVVGMAGNFRLREDKDPSKMGATIYELKEDKSYNVTQVQFDDKKCLYVIETFVPGSQPGEFTLGAIKSFPGFTSQLVRVVSTNYNQHAMVFFKKVYQNREVFWITLYGRTKELTSELKENFIRFSKSLGLPENHIVFPVPIDQCIDG
modifications: lipocalin mutein
For B7, the EC50 in test [2] was 14 nM; in test [3], 8.8 nM; in test [4] it was 11 nM; in test [6], 23 nM. In addition, the “EC Murine CTGF” value in test [5] is reported as “n.b”.
